Sequences and labels used below:
B1: MutL^WT (Escherichia coli MutL protein, wild type) [Escherichia coli] / MutS [not stated] (parent)
chain 1: MPIQVLPPQLANQIAAGEVVERPASVVKELVENSLDAGATRIDIDIERGGAKLIRIRDNGCGIKKDELALALARHATSKIASLDDLEAIISLGFRGEALASISSVSRLTLTSRTAEQQEAWQAYAEGRDMNVTVKPAAHPVGTTLEVLDLFYNTPARRKFLRTEKTEFNHIDEIIRRIALARFDVTINLSHNGKIVRQYRAVPEGGQKERRLGAICGTAFLEQALAIEWQHGDLTLRGWVADPNHTTPALAEIQYCYVNGRMMRDRLINHAIRQACEDKLGADQQPAFVLYLEIDPHQVDVNVHPAKHEVRFHQSRLVHDFIYQGVLSVLQQQLETPLPLDDEPQPAPRSIPENRVAAGRNHFAEPAAREPVAPRYTPAPASGSRPAAPWPNAQPGYQKQQGEVYRQLLQTPAPMQKLKAPEPQEPALAANSQSFGRVLTIVHSDCALLERDGNISLLSLPVAERWLRQAQLTPGEAPVCAQPLLIPLRLKVSAEEKSALEKAQSALAELGIDFQSDAQHVTIRAVPLPLRQQNLQILIPELIGYLAKQSVFEPGNIAQWIARNLMSEHAQWSMAQAITLLADVERLCPQLVKTPPGGLLQSVDLHPAIKALKDE
chain 2: MSAIENFDAHTPMMQQYLRLKAQHPEILLFYRMGDFYELFYDDAKRASQLLDISLTKRGASAGEPIPMAGIPYHAVENYLAKLVNQGESVAICEQIGDPATSKGPVERKVVRIVTPGTISDEALLQERQDNLLAAIWQDSKGFGYATLDISSGRFRLSEPADRETMAAELQRTNPAELLYAEDFAEMSLIEGRRGLRRRPLWEFEIDTARQQLNLQFGTRDLVGFGVENAPRGLCAAGCLLQYAKDTQRTTLPHIRSITMEREQDSIIMDAATRRNLEITQNLAGGAENTLASVLDCTVTPMGSRMLKRWLHMPVRDTRVLLERQQTIGALQDFTAGLQPVLRQVGDLERILARLALRTARPRDLARMRHAFQQLPELRAQLETVDSAPVQALREKMGEFAELRDLLERAIIDTPPVLVRDGGVIASGYNEELDEWRALADGATDYLERLEVRERERTGLDTLKVGFNAVHGYYIQISRGQSHLAPINYMRRQTLKNAERYIIPELKEYEDKVLTSKGKALALEKQLYEELFDLLLPHLEALQQSASALAELDVLVNLAERAYTLNYTCPTFIDKPGIRITEGRHPVVEQVLNEPFIANPLNLSPQRRMLIITGPNMGGKSTYMRQTALIALMAYIGSYVPAQKVEIGPIDRIFTRVGAADDLASGRSTFMVEMTETANILHNATEYSLVLMDEIGRGTSTYDGLSLAWACAENLANKIKALTLFATHYFELTQLPEKMEGVANVHLDALEHGDTIAFMHSVQDGAASKSYGLAVAALAGVPKEVIKRARQKLRELESISPNAAATQVDGTQMSLLSVPEETSPAVEALENLDPDSLTPRQALEWIYRLKSLV

This assay covers variants of B1. Briefly: BLI. To be noted: with MutS, 100 nM MutS, end-blocked DNA substrate with a single mismatch, read off a plot; for response: top green curve (taken as 150 nM MutL), peak at about 200 s, parent: 3.3.

In general, koff refers to a measure of how fast the partners let go of each other. With chain 1 H319A, the response was determined as 2.7 nm. For the same variant, the koff (19 nM MutL, parent: 0.0053) is 0.006 s⁻¹. Further, the koff (37 nM MutL, parent: 0.0032) turned out to be 0.0046 s⁻¹. Also, the koff (75 nM MutL, parent: 0.0031) turned out to be 0.0036 s⁻¹. Further, where the note is “150 nM MutL, parent: 0.0033”, the koff worked out at 0.0038 s⁻¹.

Consider chain 1 H270A, for which the response is 2.7 nm. In addition, the koff (19 nM MutL, parent: 0.0053) is 0.0063 s⁻¹. Further, the off-rate constant (koff) (37 nM MutL, parent: 0.0032) amounted to 0.0047 s⁻¹. Also, the koff (75 nM MutL, parent: 0.0031) was 0.0038 s⁻¹. Under “150 nM MutL, parent: 0.0033”, the dissociation rate constant (koff) turned out to be 0.0035 s⁻¹.

For chain 1 H270A H319A, the response amounted to 2.1 nm. For the same variant, where the note is “19 nM MutL, parent: 0.0053”, the koff is 0.0096 s⁻¹. In addition, for the setting “37 nM MutL, parent: 0.0032”, the koff amounted to 0.0092 s⁻¹. Moreover, the off-rate constant (koff) (75 nM MutL, parent: 0.0031) was determined as 0.0082 s⁻¹. The koff (150 nM MutL, parent: 0.0033) was found to be 0.0075 s⁻¹.

(Values after paper PMC9226502.)
